Data published in patent publication US20250135048A1, “Fibroblast activation protein compound or salt with albumin dual-binding function” (National Atomic Research Institute, priority 2023, published 2025).

Tests used:
[1] = system: HEK-293 human embryonic kidney cancer cells expressing FAP (HEK-293-FAP cells) tumor; assay: nanoSPECT/CT imaging biodistribution in tumor of HEK-293-FAP tumor-bearing mice; details: BALB/c nude mice, nanoSPECT/CT semi-quantification
Protocol: (§1) The HEK-293 human embryonic kidney cancer cells expressing FAP (HEK-293-FAP cells) are inoculated with 4×10^6 cells at the forward right flanks of BALB/c nude mice. […] These drugs are prepared to about 100 μL volume in normal saline. The nanoSPECT/CT imaging is performed at 1, 4, and 24 h after the intravenously administrated via tail vein.
(§2) The nanoSPECT/CT imaging is performed at 1, 4, and 24 h after administration to monitor the distribution of radiopharmaceuticals in the animal. The images are semi-quantification by using imaging analysis software. The SPECT count value of reference source is obtained by using imaging analysis software. […] The SPECT count value is obtained from region of image of each target organ, and obtained the activity/volume of each target organ by using the conversion formula.

[2] = nanoSPECT/CT imaging biodistribution in blood of heart of HEK-293-FAP tumor-bearing mice; details: BALB/c nude mice, nanoSPECT/CT semi-quantification
Protocol: as §1, §2

[3] = 1 h after intravenous administration via tail vein
[4] = 4 h after intravenous administration via tail vein
[5] = 24 h after intravenous administration via tail vein

Row | Compound | Tumor biodistribution value [1, 3] [% ID/mL] | Tumor biodistribution value [1, 4] [% ID/mL] | Tumor biodistribution value [1, 5] [% ID/mL] | Blood of heart biodistribution value [2, 3] [% ID/mL] | Blood of heart biodistribution value [2, 4] [% ID/mL] | Blood of heart biodistribution value [2, 5] [% ID/mL]
1 | CN(CCCN1CCN(C(=O)[C@H](COCCNC(=O)CCCc2ccc(I)cc2)NC(=O)[C@H](CCCCSC2CC(=O)N(CCC(=O)N[C@@H](CCCCN)C(=O)N[C@@H](CCCCN)C(=O)N[C@@H](CCCCN)C(=O)N[C@@H](CCCCN)C(=O)N[C@@H](CCCCN)C(=O)N[C@@H](CCCCN)C(=O)N[C@@H](CCCCN)C(=O)N[C@@H](CCCCN)C(=O)O)C2=O)NC(=O)CNC(=O)CN2CCN(CC(=O)O)CCN(CC(=O)O)CCN(CC(=O)O)CC2)CC1)c1ccc2nccc(C(=O)NCC(=O)N3CC(F)(F)C[C@H]3C#N)c2c1 (stereo partly drawn) [Lu-177-INER-FAPI-1.12, metal not drawn] | 4.71 | 5.08 | 4.21 | 16.19 | 13.33 | 5.50
2 | CN(CCCN1CCN(C(=O)[C@H](COCCNC(=O)CCCc2ccc(I)cc2)NC(=O)[C@H](CCCCSC2CC(=O)N(CCC(=O)N[C@@H](CCCNC(=N)N)C(=O)N[C@@H](CCCNC(=N)N)C(=O)N[C@@H](CCCNC(=N)N)C(=O)N[C@@H](CCCNC(=N)N)C(=O)N[C@@H](CCCNC(=N)N)C(=O)N[C@@H](CCCNC(=N)N)C(=O)N[C@@H](CCCNC(=N)N)C(=O)N[C@@H](CCCNC(=N)N)C(=O)N[C@@H](CCCNC(=N)N)C(=O)N[C@@H](CCCNC(=N)N)C(=O)N[C@@H](CCCNC(=N)N)C(=O)N[C@@H](CCCNC(=N)N)C(=O)O)C2=O)NC(=O)CNC(=O)CN2CCN(CC(=O)O)CCN(CC(=O)O)CCN(CC(=O)O)CC2)CC1)c1ccc2nccc(C(=O)NCC(=O)N3CC(F)(F)C[C@H]3C#N)c2c1 (stereo partly drawn) [Lu-177-INER-FAPI-1.23, metal not drawn] | 6.58 | 5.96 | 3.23 | 10.54 | 8.89 | 3.49
3 | CN(CCCN1CCN(C(=O)[C@H](COCCNC(=O)CCCc2ccc(I)cc2)NC(=O)[C@H](CCCCSC2CC(=O)N(CCC(=O)N[C@@H](CCCCN)C(=O)N[C@@H](CCCCN)C(=O)N[C@@H](CCCCN)C(=O)N[C@@H](CCCCN)C(=O)N[C@@H](CCCCN)C(=O)N[C@@H](CCCCN)C(=O)N[C@@H](CCCCN)C(=O)N[C@@H](CCCCN)C(=O)N[C@@H](CCCCN)C(=O)N[C@@H](CCCCN)C(=O)N[C@@H](CCCCN)C(=O)N[C@@H](CCCCN)C(=O)O)C2=O)NC(=O)CNC(=O)CN2CCN(CC(=O)O)CCN(CC(=O)O)CCN(CC(=O)O)CC2)CC1)c1ccc2nccc(C(=O)NCC(=O)N3CC(F)(F)C[C@H]3C#N)c2c1 (stereo partly drawn) [Lu-177-INER-FAPI-1.13, metal not drawn] | 8.03 | 8.54 | 5.44 | 15.70 | 12.33 | 5.44
